# Key:
# [1] = target: T1, CD16 (FcγRIIIa V158) (UniProt P08637 17-208); assay: solution competition SPR (Biacore)
# T1 construct: V158 allotype as printed
# Procedure: (§1) Binding to Fcγ receptors was analyzed using solution affinity surface plasmon resonance (ref Day E S, Cachero T G, Qian F, Sun Y, Wen D, Pelletier M, Hsu Y M, Whitty A. Selectivity of BAFF/BLyS and APRIL for binding to the TNF family receptors BAFFR/BR3 and BCMA. Biochemistry. 2005 Feb. 15; 44(6):1919-31.) The method utilizes conditions of so-called “mass-transport-limited” binding, in which the initial rate of ligand binding (protein binding to the senor chip) is proportional to the concentration of ligand in solution (ref BIApplications Handbook (1994) Chapter 6: Concentration measurement, pp 6-1-6-10, Pharmacia Biosensor AB). Under these conditions, binding of the soluble analyte (protein flowing over chip surface) to the immobilized protein on the chip is fast compared to the diffusion of the analyte into the dextran matrix on the chip surface. Therefore, the diffusion properties of the analyte and the concentration of analyte in solution flowing over the chip surface determine the rate at which analyte binds to the chip. In this experiment, the concentration of free Fc receptor in solution is determined by the initial rate of binding to a CM5 Biacore chip containing an immobilized IgG1 MAb. Into these Fc receptor solutions were titrated the stability engineered constructs (see Table 10.1 below). […] Initial binding rates were obtained from raw sensorgram data (FIG. 14). […] The results are shown in Table 10.1 and reported as the average of two titrations.
# [2] = target: T2, CD64 (FcγRI) (UniProt P12314 16-288, limits assumed); assay: solution competition SPR (Biacore)
# Procedure: as §1
# [3] = target: T3, human C1q (human, UniProt P02745 23-245; P02746 28-253; P02747 29-245); assay: C1q ELISA
# T3 construct: Bought protein; also called complement factor C1q; Sigma human C1q (C0660)
# Procedure: The C1q binding assay was be performed by coating 96 well Maxisorb ELISA plates (Nalge-Nunc Rochester, N.Y., USA) with 50 μl recombinant soluble human CD40 ligand at 10 ug/ml overnight at 4° C. in PBS. The wells were aspirated and washed three times with wash buffer (PBS, 0.05% Tween 20) and blocked for 1 hour with 200 µl/well of block/diluent buffer (0.1 M Na2HP04, pH 7.0, 1 M NaCl, 0.05% Tween 20, 1% gelatin). The antibodies were diluted in block/diluent buffer with 3-fold dilutions and incubated for 2 hours at room temperature.
# After aspirating and washing as above, 50 pll/well of sheep anti C1q (Serotec AHP033), diluted 3, 560-fold in block/diluent buffer, were added. After incubation for 1 h at room temperature, the wells were aspirated and washed as above. 50 pll/well of donkey anti-sheep IgG HRP conjugate (Jackson ImmunoResearch 713-035-147) diluted to 1:10,000 in block/diluent were then added, and the wells incubated for 1 h at room temperature.
# After aspirating and washing as above, 100 all TMB substrate (420 plM TMB, 0.004% H2O2 in 0.1 M sodium acetate/citric acid buffer, pH 4.9) were added and incubated for 2 min before the reaction was stopped with 100 ul 2 N sulfuric acid. The absorbance was read at 450 nm with a Softmax PRO instrument, and Softmax software was used to determine the relative binding affinity (C value) with a 4-parameter fit.
# [4] = target: T1, CD16 (FcγRIIIa V158); assay: solution competition SPR (Biacore); construct titrated into receptor, free receptor read on immobilized IgG1 MAb
# Procedure: as §1
# [5] = target: T2, CD64 (FcγRI); assay: as above
# Procedure: as §1
# [6] = target: T1, CD16 (FcγRIIIa V158); assay: solution competition SPR (Biacore); remark: listed apart in the source
Binder,binding result [3],IC50 [4] [µM],IC50 [5] [µM],further results
"EC300 (hu5c8 IgG4.P S228P, T307P, glycosylated) (antibody, copies: 2 + 2) heavy: not shown light: DIVLTQSPATLSVSPGERATISCRASQRVSSSTYSYMHWYQQKPGQPPKLLIKYASNLESGVPARFSGSGSGTDFTLTISSVEPEDFATYYCQHSWEIPPTFGGGTKLEIKRTVAAPSVFIFPPSDEQLKSGTASVVCLLNNFYPREAKVQWKVDNALQSGNSQESVTEQDSKDSTYSLSSTLTLSKADYEKHKVYACEVTHQGLSSPVTKSFNRGEC",,564,11.2,
"EAG2296 (hu5c8 S228P/T299A, IgG4 CH2/IgG1 CH3 chimera, aglycosylated) (antibody, also called pEAG2296; copies: 2 + 2) heavy: QVQLVQSGAEVVKPGASVKLSCKASGYIFTSYYMYWVKQAPGQGLEWIGEINPSNGDTNFNEKFKSKATLTVDKSASTAYMELSSLRSEDTAVYYCTRSDGRNDMDSWGQGTLVTVSSASTKGPSVFPLAPCSRSTSESTAALGCLVKDYFPEPVTVSWNSGALTSGVHTFPAVLQSSGLYSLSSVVTVPSSSLGTKTYTCNVDHKPSNTKVDKRVESKYGPPCPPCPAPEFLGGPSVFLFPPKPKDTLMISRTPEVTCVVVDVSQEDPEVQFNWYVDGVEVHNAKTKPREEQFNSAYRVVSVLTVLHQDWLNGKEYKCKVSNKGLPSSIEKTISKAKGQPREPQVYTLPPSRDELTKNQVSLTCLVKGFYPSDIAVEWESNGQPENNYKTTPPVLDSDGSFFLYSKLTVDKSRWQQGNVFSCSVMHEALHNHYTQKSLSLSPG light: DIVLTQSPATLSVSPGERATISCRASQRVSSSTYSYMHWYQQKPGQPPKLLIKYASNLESGVPARFSGSGSGTDFTLTISSVEPEDFATYYCQHSWEIPPTFGGGTKLEIKRTVAAPSVFIFPPSDEQLKSGTASVVCLLNNFYPREAKVQWKVDNALQSGNSQESVTEQDSKDSTYSLSSTLTLSKADYEKHKVYACEVTHQGLSSPVTKSFNRGEC",no binding,,,IC50 [1]: 1320 µM
"EAG2476 (YC406-Fc; agly IgG4-Fc T299K, T307P, L309K, D399S) (other, Aglycosylated through T299K. The Fc is a homodimer; one chain is given.) Fc: ESKYGPPCPPCPAPEFLGGPSVFLFPPKPKDTLMISRTPEVTCVVVDVSQEDPEVQFNWYVDGVEVHNAKTKPREEQFNSKYRVVSVLPVKHQDWLNGKEYKCKVSNKGLPSSIEKTISKAKGQPREPQVYTLPPSQEEMTKNQVSLTCLVKGFYPSDIAVEWESNGQPENNYKTTPPVLSSDGSFFLYSRLTVDKSRWQEGNVFSCSVMHEALHNHYTQKSLSLSLG",,,,IC50 [6]: 1320 µM

# The next lines start with results.
binding result [3],IC50 [4] [µM],IC50 [5] [µM],Binder,further results
no binding,,,"EAG2287 (hu5c8 S228P/T299K, IgG4 CH2/IgG1 CH3 chimera, aglycosylated) (antibody, also called pEAG2287; copies: 2 + 2) heavy: QVQLVQSGAEVVKPGASVKLSCKASGYIFTSYYMYWVKQAPGQGLEWIGEINPSNGDTNFNEKFKSKATLTVDKSASTAYMELSSLRSEDTAVYYCTRSDGRNDMDSWGQGTLVTVSSASTKGPSVFPLAPCSRSTSESTAALGCLVKDYFPEPVTVSWNSGALTSGVHTFPAVLQSSGLYSLSSVVTVPSSSLGTKTYTCNVDHKPSNTKVDKRVESKYGPPCPPCPAPEFLGGPSVFLFPPKPKDTLMISRTPEVTCVVVDVSQEDPEVQFNWYVDGVEVHNAKTKPREEQFNSKYRVVSVLTVLHQDWLNGKEYKCKVSNKGLPSSIEKTISKAKGQPREPQVYTLPPSRDELTKNQVSLTCLVKGFYPSDIAVEWESNGQPENNYKTTPPVLDSDGSFFLYSKLTVDKSRWQQGNVFSCSVMHEALHNHYTQKSLSLSPG light: DIVLTQSPATLSVSPGERATISCRASQRVSSSTYSYMHWYQQKPGQPPKLLIKYASNLESGVPARFSGSGSGTDFTLTISSVEPEDFATYYCQHSWEIPPTFGGGTKLEIKRTVAAPSVFIFPPSDEQLKSGTASVVCLLNNFYPREAKVQWKVDNALQSGNSQESVTEQDSKDSTYSLSSTLTLSKADYEKHKVYACEVTHQGLSSPVTKSFNRGEC",binding result [1]: no binding; IC50 [2]: 4040 µM
,380,7.56,"EC326 (hu5c8 IgG4.P S228P, T307P, L309K, D399S, glycosylated) (antibody, N-terminal Q largely converted to pyroglutamic acid; N-linked G0F/G1F/G2F glycans (mass spectrometry), copies: 2 + 2) heavy: QVQLVQSGAEVVKPGASVKLSCKASGYIFTSYYMYWVKQAPGQGLEWIGEINPSNGDTNFNEKFKSKATLTVDKSASTAYMELSSLRSEDTAVYYCTRSDGRNDMDSWGQGTLVTVSSASTKGPSVFPLAPCSRSTSESTAALGCLVKDYFPEPVTVSWNSGALTSGVHTFPAVLQSSGLYSLSSVVTVPSSSLGTKTYTCNVDHKPSNTKVDKRVESKYGPPCPPCPAPEFLGGPSVFLFPPKPKDTLMISRTPEVTCVVVDVSQEDPEVQFNWYVDGVEVHNAKTKPREEQFNSTYRVVSVLPVKHQDWLNGKEYKCKVSNKGLPSSIEKTISKAKGQPREPQVYTLPPSQEEMTKNQVSLTCLVKGFYPSDIAVEWESNGQPENNYKTTPPVLSSDGSFFLYSRLTVDKSRWQEGNVFSCSVMHEALHNHYTQKSLSLSLG light: DIVLTQSPATLSVSPGERATISCRASQRVSSSTYSYMHWYQQKPGQPPKLLIKYASNLESGVPARFSGSGSGTDFTLTISSVEPEDFATYYCQHSWEIPPTFGGGTKLEIKRTVAAPSVFIFPPSDEQLKSGTASVVCLLNNFYPREAKVQWKVDNALQSGNSQESVTEQDSKDSTYSLSSTLTLSKADYEKHKVYACEVTHQGLSSPVTKSFNRGEC",
